# Assay results taken from patent US20140086935A1 (Bayer, published 2014).
# Changes are numbered by the printed parent chain.
# B1: MS-BW-18 (Fab, V domains shown)
# VH: QVQLVQSGAEVKKPGESLKISCKGSGYSFTSYWIGWVRQMPGKGLEWMGIIYPGDSDTRYSPSFQGQVTISADKSISTAYLQWSSLKASDTAMYYCARLVGGGYDLMFDSWGQGTLVTVSS
# VL: DIALTQPASVSGSPGQSITISCTGTSSDVGGYNYVSWYQQHPGKAPKLMIYDVSNRPSGVSNRFSGSKSGNTASLTISGLQAEDEADYYCQSYDDMQFVFGGGTKLTVLG
# notes: Fab, FLAG + Strep-tag II; not tied by name
# B2: MS-BW-31 (Fab, V domains shown)
# VH: QVQLVQSGAEVKKPGESLKISCKGSGYSFTSYWIGWVRQMPGKGLEWMGIIYPGDSDTRYSPSFQGQVTISADKSISTAYLQWSSLKASDTAMYYCARLYADADIYFDYWGQGTLVTVSS
# VL: B1 VL with D95L, M96S, Q97P, F98R
# notes: as for B1
# B3: MS-BW-62 (Fab, V domains shown)
# VH: B2 VH with Y100F, A101T, D102Y, A103P, D104F, I105L, Y109V
# VL: DIALTQPASVSGSPGQSITISCTGTSSDVGGYNYVSWYQQHPGKAPKLMIYDVSNRPSGVSNRFSGSKSGNTASLTISGLQAEDEADYYCQSDFPVMVFGGGTKLTVLG
# notes: as for B1
# B4: MS-BW-24 (Fab, V domains shown)
# VH: B2 VH with L99Y, A101V, D102T, A103D, D104T, I105A
# VL: B3 VL with F94L, P95Y, V96F, M97P
# notes: as for B1
# B5: MS-BW-63 (Fab, V domains shown)
# VH: B2 VH with L99I, Y100L, A101T, D102G, A103H, D104V, I105L, Y106L
# VL: B3 VL with F94N, V96Y, M97L
# notes: as for B1
# B6: MS-BW-15 (Fab, V domains shown)
# VH: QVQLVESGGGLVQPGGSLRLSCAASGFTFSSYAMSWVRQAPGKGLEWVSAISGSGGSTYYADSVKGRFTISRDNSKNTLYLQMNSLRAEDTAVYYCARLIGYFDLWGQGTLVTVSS
# VL: DIALTQPASVSGSPGQSITISCTGTSSDVGGYNYVSWYQQHPGKAPKLMIYDVSNRPSGVSNRFSGSKSGNTASLTISGLQAEDEADYYCQSYDVLDSEVFGGGTKLTVLG
# notes: as for B1
# B7: MS-BW-20 (Fab, V domains shown)
# VH: QVQLVQSGAEVKKPGSSVKVSCKASGGTFSSYAISWVRQAPGQGLEWMGGIIPIFGTANYAQKFQGRVTITADESTSTAYMELSSLRSEDTAVYYCARSGYLDYWGQGTLVTVSS
# VL: B6 VL with V95Y, L96Y, S98Y, E99G
# notes: as for B1
# B8: MS-BW-19 (Fab, V domains shown)
# VH: QVQLVQSGAEVKKPGESLKISCKGSGYSFTSYWIGWVRQMPGKGLEWMGIIYPGDSDTRYSPSFQGQVTISADKSISTAYLQWSSLKASDTAMYYCARYVTYGYDDYHFDYWGQGTLVTVSS
# VL: B6 VL with Y93W, V95I, L96N, D97H, S98A, E99I
# notes: as for B1
# B9: MS-BW-9 (Fab, V domains shown)
# VH: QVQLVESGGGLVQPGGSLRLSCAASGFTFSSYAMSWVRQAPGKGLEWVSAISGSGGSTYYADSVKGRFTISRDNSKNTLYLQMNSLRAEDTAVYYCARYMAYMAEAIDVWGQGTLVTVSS
# VL: DIVLTQPPSVSGAPGQRVTISCSGSSSNIGSNYVSWYQQLPGTAPKLLIYDNNQRPSGVPDRFSGSKSGTSASLAITGLQSEDEADYYCQSYDGFKTHVFGGGTKLTVLG
# notes: as for B1
# B10: MS-BW-10 (Fab, V domains shown)
# VH: QVQLVQSGAEVKKPGASVKVSCKASGYTFTSYYMHWVRQAPGQGLEWMGWINPNSGGTNYAQKFQGRVTMTRDTSISTAYMELSSLRSEDTAVYYCARLVGIVGYKPDELLYFDVWGQGTLVTVSS
# VL: DIELTQPPSVSVAPGQTARISCSGDALGDKYASWYQQKPGQAPVLVIYDDSDRPSGIPERFSGSNSGNTATLTISGTQAEDEADYYCQSYDYSLLVFGGGTKLTVLG
# notes: as for B1
# B11: MS-BW-11 (Fab, V domains shown)
# VH: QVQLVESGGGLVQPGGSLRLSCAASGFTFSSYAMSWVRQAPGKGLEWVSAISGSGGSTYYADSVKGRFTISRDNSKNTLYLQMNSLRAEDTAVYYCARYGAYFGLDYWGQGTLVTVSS
# VL: B10 VL with Y92F, S93N, L94F, L95H
# notes: as for B1
# B12: MS-BW-7 (Fab, V domains shown)
# VH: QVQLVQSGAEVKKPGSSVKVSCKASGGTFSSYAISWVRQAPGQGLEWMGGIIPIFGTANYAQKFQGRVTITADESTSTAYMELSSLRSEDTAVYYCARTYYYFDSWGQGTLVTVSS
# VL: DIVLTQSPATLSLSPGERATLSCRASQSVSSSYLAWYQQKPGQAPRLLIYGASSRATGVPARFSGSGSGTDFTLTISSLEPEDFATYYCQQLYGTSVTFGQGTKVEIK
# B13: MS-BW-6 (Fab, V domains shown)
# VH: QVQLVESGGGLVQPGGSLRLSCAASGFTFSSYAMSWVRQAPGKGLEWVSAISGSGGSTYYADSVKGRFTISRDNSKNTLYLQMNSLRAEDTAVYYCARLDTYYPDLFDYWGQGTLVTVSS
# VL: DIVLTQPPSVSGAPGQRVTISCSGSSSNIGSNYVSWYQQLPGTAPKLLIYDNNQRPSGVPDRFSGSKSGTSASLAITGLQSEDEADYYCQSYDQRKWVFGGGTKLTVLG
# notes: as for B1
# B14: MS-BW-12 (Fab, V domains shown)
# VH: QVQLQQSGPGLVKPSQTLSLTCAISGDSVSSNSAAWNWIRQSPGRGLEWLGRTYYRSKWYNDYAVSVKSRITINPDTSKNQFSLQLNSVTPEDTAVYYCARGYADISFDYWGQGTLVTVSS
# VL: DIALTQPASVSGSPGQSITISCTGTSSDVGGYNYVSWYQQHPGKAPKLMIYDVSNRPSGVSNRFSGSKSGNTASLTISGLQAEDEADYYCQSYDMIARYPVFGGGTKLTVLG
# notes: as for B1
# B15: MS-BW-22 (Fab, V domains shown)
# VH: B1 VH with L99F, V100R, G101A, G102Y, Y104D, L106F, M107Y, S110V
# VL: B14 VL with Y93W, M95N, I96L, A97K, R98M, Y99P, P100V
# notes: as for B1
# B16: MS-BW-23 (Fab, V domains shown)
# VH: QVQLVQSGAEVKKPGASVKVSCKASGYTFTSYYMHWVRQAPGQGLEWMGWINPNSGGTNYAQKFQGRVTMTRDTSISTAYMELSSLRSEDTAVYYCARIMWSDYGQLVKGGDIWGQGTLVTVSS
# VL: B14 VL with M95V, I96F, A97P, R98I, Y99N, P100R
# notes: as for B1
# B17: MS-BW-13 (Fab, V domains shown)
# VH: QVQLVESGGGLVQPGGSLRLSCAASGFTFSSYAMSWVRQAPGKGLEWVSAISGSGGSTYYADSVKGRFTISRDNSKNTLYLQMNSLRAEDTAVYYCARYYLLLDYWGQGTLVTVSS
# VL: DIELTQPPSVSVAPGQTARISCSGDALGDKYASWYQQKPGQAPVLVIYDDSDRPSGIPERFSGSNSGNTATLTISGTQAEDEADYYCQSWDIHPFDVVFGGGTKLTVLG
# notes: as for B1
# B18: MS-BW-5 (Fab, V domains shown)
# VH: QVQLVQSGAEVKKPGSSVKVSCKASGGTFSSYAISWVRQAPGQGLEWMGGIIPIFGTANYAQKFQGRVTITADESTSTAYMELSSLRSEDTAVYYCARGLYWAVYPYFDFWGQGTLVTVSS
# VL: B9 VL with Y92R, G94F, F95N, K96R, T97G, H98P
# notes: as for B1
# B19: MS-BW-58 (Fab, V domains shown)
# VH: QVQLQQSGPGLVKPSQTLSLTCAISGDSVSSNSAAWNWIRQSPGRGLEWLGRTYYRSKWYNDYAVSVKSRITINPDTSKNQFSLQLNSVTPEDTAVYYCARWMTPPGHYYGYTFDVWGQGTLVTVSS
# VL: DIELTQPPSVSVAPGQTARISCSGDALGDKYASWYQQKPGQAPVLVIYDDSDRPSGIPERFSGSNSGNTATLTISGTQAEDEADYYCQSWDPSHYYVFGGGTKLTVLG
# notes: as for B1
# Target: T1, rat TIMP-1 (rat, UniProt P30120 24-217)
# T1 sequence (P30120 24-217 limits assumed): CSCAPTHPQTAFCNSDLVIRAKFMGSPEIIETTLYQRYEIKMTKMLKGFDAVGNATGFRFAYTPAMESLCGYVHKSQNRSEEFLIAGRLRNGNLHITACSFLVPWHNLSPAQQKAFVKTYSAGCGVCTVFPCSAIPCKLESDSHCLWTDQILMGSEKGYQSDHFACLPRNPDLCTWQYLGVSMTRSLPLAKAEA
# Assay: cell-based or functional assay
row,IC50 in rat protease assay,Binder
1,> 300 nM,B1
2,> 100 nM,B2
3,19 nM,B3
4,20 nM,B4
5,20 nM,B5
6,~200 nM,B6
7,> 300 nM,B7
8,> 300 nM,B8
9,> 300 nM,B9
10,~30 nM,B10
11,> 300 nM,B11
12,> 300 nM,B12
13,~100 nM,B13
14,> 300 nM,B14
15,65 nM,B15
16,> 300 nM,B16

# Target: T1, rat TIMP-1
# Assay: SPR (BIAcore), TIMP-1 coupled to chip, monovalent Fab
# Method: For affinity determination, monomeric fractions of affinity and SEC purified Fab fragments or purified IgG1 molecules were used. All experiments were conducted in HBS buffer at a flow rate of 20 μl/min at 25° C. on a BIAcore™ instrument. Antigens in 100 mM sodium acetate pH 5.0 were coupled to a CM 5 sensor chip using standard EDC-NHS coupling chemistry. […] All sensograms were fitted globally using BIA evaluation software. For monovalent Fab fragments a monovalent fit (Langmuir binding) and for IgGs a bivalent fit was applied.
row,Kd,Binder
1,~939 nM,B17
2,~153 nM,B1
3,~13 nM,B2
4,~36 nM,B3
5,23 nM,B4
6,~14 nM,B5
7,~80 nM,B6
8,~70 nM,B7
9,~187 nM,B8
10,~256 nM,B9
11,~210 nM,B18
12,~200 nM,B10
13,~200 nM,B11
14,~168 nM,B12
15,~138 nM,B19
16,~68 nM,B13
17,~419 nM,B14
18,35 nM,B15
19,~207 nM,B16
